Our source for the localisation_or_trafficking and expression_or_secretion values is article PMC8667150.

Series [1] can be described thus: immunofluorescence, anti-myc and anti-calnexin, AR42J cells. The settings on record: glycan lost; control: wild type.
Series [2] can be described thus: Western blot of transfected AR42J cells. Conditions: glycan lost; control: wild type. For orientation: Immunoblotting shows a protein as a band on a membrane.

B1: somatostatin receptor type 2 (SSTR2): N9Q (protein)
parent chain: MELTSEQFNGSQVWIPSPFDLNGSLGPSNGSNQTEPYYDMTSNAVLTFIYFVVCVVGLCGNTLVIYVILRYAKMKTITNIYILNLAIADELFMLGLPFLAMQVALVHWPFGKAICRVVMTVDGINQFTSIFCLTVMSIDRYLAVVHPIKSAKWRRPRTAKMINVAVWGVSLLVILPIMIYAGLRSNQWGRSSCTINWPGESGAWYTGFIIYAFILGFLVPLTIICLCYLFIIIKVKSSGIRVGSSKRKKSEKKVTRMVSIVVAVFIFCWLPFYIFNVSSVSVAISPTPALKGMFDFVVILTYANSCANPILYAFLSDNFKKSFQNVLCLVKVSGAEDGERSDSKQDKSRLNETTETQRTLLNGDLQTSI
Regarding B1, the localisation_or_trafficking result in series [1] is recorded as “changes”. Further, the expression_or_secretion result in series [2] is “decreases”.
